{"source": "paper PMC7699706", "about": "“Responses of DNA Mismatch Repair Proteins to a Stable G-Quadruplex Embedded into a DNA Duplex Structure” (International Journal of Molecular Sciences, 2020)", "proteins": {"B1": {"name": "ecMutS (Escherichia coli K-12) (protein)", "chain": "MSAIENFDAHTPMMQQYLRLKAQHPEILLFYRMGDFYELFYDDAKRASQLLDISLTKRGASAGEPIPMAGIPYHAVENYLAKLVNQGESVAICEQIGDPATSKGPVERKVVRIVTPGTISDEALLQERQDNLLAAIWQDSKGFGYATLDISSGRFRLSEPADRETMAAELQRTNPAELLYAEDFAEMSLIEGRRGLRRRPLWEFEIDTARQQLNLQFGTRDLVGFGVENAPRGLCAAGCLLQYAKDTQRTTLPHIRSITMEREQDSIIMDAATRRNLEITQNLAGGAENTLASVLDCTVTPMGSRMLKRWLHMPVRDTRVLLERQQTIGALQDFTAGLQPVLRQVGDLERILARLALRTARPRDLARMRHAFQQLPELRAQLETVDSAPVQALREKMGEFAELRDLLERAIIDTPPVLVRDGGVIASGYNEELDEWRALADGATDYLERLEVRERERTGLDTLKVGFNAVHGYYIQISRGQSHLAPINYMRRQTLKNAERYIIPELKEYEDKVLTSKGKALALEKQLYEELFDLLLPHLEALQQSASALAELDVLVNLAERAYTLNYTCPTFIDKPGIRITEGRHPVVEQVLNEPFIANPLNLSPQRRMLIITGPNMGGKSTYMRQTALIALMAYIGSYVPAQKVEIGPIDRIFTRVGAADDLASGRSTFMVEMTETANILHNATEYSLVLMDEIGRGTSTYDGLSLAWACAENLANKIKALTLFATHYFELTQLPEKMEGVANVHLDALEHGDTIAFMHSVQDGAASKSYGLAVAALAGVPKEVIKRARQKLRELESISPNAAATQVDGTQMSLLSVPEETSPAVEALENLDPDSLTPRQALEWIYRLKSLV", "notes": "recombinant, N-terminal His6 tag, expressed in E. coli BL21(DE3), Ni-NTA and size exclusion; homodimer"}}, "substrate": "Nc1ncnc2c1ncn2[C@@H]1O[C@H](COP(=O)(O)OP(=O)(O)OP(=O)(O)O)[C@@H](O)[C@H]1O", "experiment": "malachite green phosphate release assay, Michaelis-Menten fit", "type": "biochemical, Escherichia coli", "conditions": "no DNA, 5 mM MgCl2, 120 mM KCl, 10 mM HEPES-KOH pH 7.5, 37 °C, 250 nM MutS dimer", "text": "malachite green phosphate release assay, Michaelis-Menten fit on ecMutS"}
{"protein": "B1", "values": [{"measurement": "Km", "result": "35 ± 15", "unit": "µM"}, {"measurement": "kcat", "result": "0.117 ± 0.0167", "unit": "s⁻¹"}]}
